The target in assay [1] is transthyretin (UniProt P02766). Particulars: cited from earlier work.
For assay [2], the target named is megalin (LRP-2) (mouse (endogenous in cultured hippocampal neurons)) (UniProt A2ARV4).

For orientation: Kd means the free concentration of one partner at which half of the binding sites on the other are occupied at equilibrium, for simple one-to-one binding.

megalin (LRP-2) (mouse (endogenous in cultured hippocampal neurons)), sequence (A2ARV4 26-4660): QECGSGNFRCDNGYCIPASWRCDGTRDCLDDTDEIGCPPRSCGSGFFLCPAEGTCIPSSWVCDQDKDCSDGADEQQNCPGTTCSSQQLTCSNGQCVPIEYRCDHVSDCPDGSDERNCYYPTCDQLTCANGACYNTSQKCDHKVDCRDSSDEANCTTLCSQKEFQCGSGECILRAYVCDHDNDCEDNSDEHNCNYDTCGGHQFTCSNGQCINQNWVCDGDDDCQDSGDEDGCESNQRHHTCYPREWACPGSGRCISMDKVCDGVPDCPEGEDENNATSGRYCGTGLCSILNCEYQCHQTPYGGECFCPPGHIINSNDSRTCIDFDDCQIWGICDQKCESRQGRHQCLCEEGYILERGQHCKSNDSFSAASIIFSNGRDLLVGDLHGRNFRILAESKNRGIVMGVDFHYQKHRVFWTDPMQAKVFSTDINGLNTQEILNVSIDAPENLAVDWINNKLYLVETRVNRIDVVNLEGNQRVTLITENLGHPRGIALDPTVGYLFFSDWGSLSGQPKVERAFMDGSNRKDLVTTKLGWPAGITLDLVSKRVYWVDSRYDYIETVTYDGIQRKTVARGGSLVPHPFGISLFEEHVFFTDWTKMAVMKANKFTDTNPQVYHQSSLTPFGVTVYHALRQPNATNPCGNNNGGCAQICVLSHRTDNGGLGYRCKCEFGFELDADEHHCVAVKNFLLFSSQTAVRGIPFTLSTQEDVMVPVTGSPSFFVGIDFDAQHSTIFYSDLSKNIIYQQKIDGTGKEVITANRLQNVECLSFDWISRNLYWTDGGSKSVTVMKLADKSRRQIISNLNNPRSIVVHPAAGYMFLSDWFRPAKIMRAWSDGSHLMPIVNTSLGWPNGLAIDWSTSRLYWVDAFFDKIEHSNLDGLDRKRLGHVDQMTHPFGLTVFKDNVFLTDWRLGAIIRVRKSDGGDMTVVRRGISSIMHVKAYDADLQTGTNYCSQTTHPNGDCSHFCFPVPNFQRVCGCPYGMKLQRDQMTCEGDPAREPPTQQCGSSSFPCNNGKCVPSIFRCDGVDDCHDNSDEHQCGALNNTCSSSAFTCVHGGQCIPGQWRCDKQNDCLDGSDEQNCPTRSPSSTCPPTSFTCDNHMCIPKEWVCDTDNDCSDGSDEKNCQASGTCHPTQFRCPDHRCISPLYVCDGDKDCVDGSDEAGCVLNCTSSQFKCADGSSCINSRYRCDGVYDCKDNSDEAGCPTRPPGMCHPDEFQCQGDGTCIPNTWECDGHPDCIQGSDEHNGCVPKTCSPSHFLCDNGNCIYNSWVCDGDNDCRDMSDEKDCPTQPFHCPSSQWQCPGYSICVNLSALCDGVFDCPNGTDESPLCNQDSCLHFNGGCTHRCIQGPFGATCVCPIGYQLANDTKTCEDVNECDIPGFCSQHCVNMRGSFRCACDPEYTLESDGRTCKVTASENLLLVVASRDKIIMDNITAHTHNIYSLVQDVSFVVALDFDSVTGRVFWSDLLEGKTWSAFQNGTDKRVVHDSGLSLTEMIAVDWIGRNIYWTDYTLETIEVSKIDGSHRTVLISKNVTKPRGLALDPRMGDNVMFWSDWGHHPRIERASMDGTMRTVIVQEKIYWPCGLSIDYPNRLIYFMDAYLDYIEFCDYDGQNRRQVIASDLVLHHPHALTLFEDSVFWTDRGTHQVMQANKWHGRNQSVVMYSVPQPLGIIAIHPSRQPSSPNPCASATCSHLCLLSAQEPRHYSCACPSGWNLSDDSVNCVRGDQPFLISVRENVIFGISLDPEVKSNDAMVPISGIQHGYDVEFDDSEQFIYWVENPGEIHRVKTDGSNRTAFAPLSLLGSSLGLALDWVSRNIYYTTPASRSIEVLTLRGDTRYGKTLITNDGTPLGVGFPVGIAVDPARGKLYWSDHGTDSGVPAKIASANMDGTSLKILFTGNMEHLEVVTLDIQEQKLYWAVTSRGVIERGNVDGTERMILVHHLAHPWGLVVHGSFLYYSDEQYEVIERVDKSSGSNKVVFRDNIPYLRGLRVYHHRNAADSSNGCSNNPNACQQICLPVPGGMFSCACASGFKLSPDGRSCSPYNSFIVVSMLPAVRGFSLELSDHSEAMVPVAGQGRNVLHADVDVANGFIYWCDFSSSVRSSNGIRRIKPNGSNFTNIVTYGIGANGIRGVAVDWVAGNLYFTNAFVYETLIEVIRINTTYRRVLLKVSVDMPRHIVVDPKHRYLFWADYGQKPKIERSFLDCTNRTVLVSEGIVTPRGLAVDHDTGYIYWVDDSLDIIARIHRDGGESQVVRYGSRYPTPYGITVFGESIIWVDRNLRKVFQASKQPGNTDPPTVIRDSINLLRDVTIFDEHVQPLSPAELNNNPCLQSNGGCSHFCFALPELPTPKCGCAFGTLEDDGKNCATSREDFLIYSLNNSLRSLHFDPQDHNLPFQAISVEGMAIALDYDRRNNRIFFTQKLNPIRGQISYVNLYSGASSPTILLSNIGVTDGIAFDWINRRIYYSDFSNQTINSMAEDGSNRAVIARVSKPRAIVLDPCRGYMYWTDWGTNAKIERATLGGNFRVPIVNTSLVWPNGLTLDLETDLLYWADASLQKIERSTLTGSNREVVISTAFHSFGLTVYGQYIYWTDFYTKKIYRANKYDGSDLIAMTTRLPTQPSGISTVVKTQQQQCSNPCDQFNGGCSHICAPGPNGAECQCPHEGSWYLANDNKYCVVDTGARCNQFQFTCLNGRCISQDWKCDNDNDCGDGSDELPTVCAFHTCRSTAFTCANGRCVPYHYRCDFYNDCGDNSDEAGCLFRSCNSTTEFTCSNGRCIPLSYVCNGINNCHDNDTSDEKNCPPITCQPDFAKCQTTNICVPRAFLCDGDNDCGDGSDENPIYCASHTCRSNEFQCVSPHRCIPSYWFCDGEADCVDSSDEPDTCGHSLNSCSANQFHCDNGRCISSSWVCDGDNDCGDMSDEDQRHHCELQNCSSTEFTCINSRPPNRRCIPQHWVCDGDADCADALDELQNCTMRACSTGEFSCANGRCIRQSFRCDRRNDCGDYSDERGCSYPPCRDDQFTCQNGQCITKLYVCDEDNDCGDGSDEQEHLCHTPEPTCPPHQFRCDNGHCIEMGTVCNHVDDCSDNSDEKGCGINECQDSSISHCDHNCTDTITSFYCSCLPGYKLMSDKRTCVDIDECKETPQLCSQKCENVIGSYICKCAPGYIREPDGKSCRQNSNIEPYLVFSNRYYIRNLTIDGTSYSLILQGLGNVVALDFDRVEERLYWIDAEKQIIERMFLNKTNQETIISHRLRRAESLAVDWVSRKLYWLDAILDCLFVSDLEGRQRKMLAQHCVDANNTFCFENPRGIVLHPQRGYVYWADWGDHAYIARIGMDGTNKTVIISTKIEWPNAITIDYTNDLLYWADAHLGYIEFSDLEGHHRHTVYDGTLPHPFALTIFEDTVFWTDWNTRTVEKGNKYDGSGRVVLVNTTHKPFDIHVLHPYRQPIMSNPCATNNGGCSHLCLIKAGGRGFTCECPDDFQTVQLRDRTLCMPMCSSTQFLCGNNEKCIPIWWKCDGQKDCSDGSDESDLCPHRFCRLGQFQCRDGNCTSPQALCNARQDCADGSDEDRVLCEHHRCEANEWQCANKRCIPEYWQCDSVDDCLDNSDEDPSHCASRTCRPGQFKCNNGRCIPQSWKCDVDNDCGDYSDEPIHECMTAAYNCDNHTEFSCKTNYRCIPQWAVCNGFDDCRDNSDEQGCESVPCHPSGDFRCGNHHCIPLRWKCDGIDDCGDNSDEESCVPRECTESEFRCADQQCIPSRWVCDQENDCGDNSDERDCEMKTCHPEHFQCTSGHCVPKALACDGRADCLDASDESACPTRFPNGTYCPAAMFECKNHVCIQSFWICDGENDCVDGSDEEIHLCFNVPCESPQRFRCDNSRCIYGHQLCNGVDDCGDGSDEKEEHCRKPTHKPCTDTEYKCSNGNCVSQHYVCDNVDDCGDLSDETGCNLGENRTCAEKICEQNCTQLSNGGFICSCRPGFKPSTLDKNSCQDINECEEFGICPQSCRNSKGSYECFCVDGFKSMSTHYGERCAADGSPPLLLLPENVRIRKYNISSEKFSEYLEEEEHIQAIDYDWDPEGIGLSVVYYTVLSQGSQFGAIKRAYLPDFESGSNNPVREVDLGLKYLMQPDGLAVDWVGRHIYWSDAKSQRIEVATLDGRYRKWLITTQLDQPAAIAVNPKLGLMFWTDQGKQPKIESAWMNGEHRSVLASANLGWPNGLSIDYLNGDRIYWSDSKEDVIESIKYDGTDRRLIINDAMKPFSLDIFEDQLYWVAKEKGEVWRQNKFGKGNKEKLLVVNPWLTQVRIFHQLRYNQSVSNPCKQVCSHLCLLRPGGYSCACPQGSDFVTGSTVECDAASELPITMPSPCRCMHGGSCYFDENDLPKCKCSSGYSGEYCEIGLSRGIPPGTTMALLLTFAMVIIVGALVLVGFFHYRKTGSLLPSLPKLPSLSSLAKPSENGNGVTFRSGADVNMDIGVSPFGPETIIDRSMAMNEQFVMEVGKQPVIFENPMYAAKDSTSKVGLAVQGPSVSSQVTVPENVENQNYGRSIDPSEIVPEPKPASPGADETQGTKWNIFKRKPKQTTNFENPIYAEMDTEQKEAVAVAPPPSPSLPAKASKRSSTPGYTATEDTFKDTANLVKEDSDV

In the case of megalin (from UniProt P98164), the Kd in assay [1] is 500 nM.

As to “recombinant mouse transthyretin (from UniProt P07309 21-147) (ligand)”, in assay [2], the activation of Src (phospho-Tyr416) by western blot in TTR KO cultured hippocampal neurons, 30 min after mouse TTR (55 μg/ml) fell in the range of 30 to 50%; the rise of CREB phosphorylation (Ser133) by western blot in TTR KO cultured hippocampal neurons stimulated with mouse TTR (55 μg/ml) was 20%; the rise of phosphorylated Akt (Ser473) by western blot in TTR KO cultured hippocampal neurons, 30 min after mouse TTR (55 μg/ml) was 23%; the rise of phosphorylated ERK by western blot in TTR KO cultured hippocampal neurons, 30 min after mouse TTR (55 μg/ml) was 35%.

The values are drawn from paper PMC5071567.
